Broadly, the Km is the concentration of substrate that gives half-maximal velocity. Usually kcat stands for the maximal rate divided by the concentration of active sites. As usually defined, the kcat/Km is the turnover number divided by the Michaelis constant.

B1: unnamed (protein)
chain: MRPPWYPLHTPSLAFPLLFLLLSLLGGGARAEGREDPQLLVRVRGGQLRGIRLKAPGGPVSAFLGIPFAEPPVGSRRFMPPEPKRPWSGVLDATTFQNVCYQNVNTLYPGFEGTEMWNPNRELSEDCLYLNVWTPYPRPASPTPVLIWIYGGGFQSGAASLDVYDGRFLAQVEGAVLVSMNYRVGTFGFLALPGSREAPGNVGLLDQRLALQWVQENIAAFGGDPMSVTLFGESAGAASVGMHILSLPSRSLFHRAVLQSGTPNGPWATVSAGEARRRATLLARLVGCPPGGAGGNDTELIACLRTRPAQDLVDHEAHVLPQESIFRFSFVPVVDGDFLSDTPEALINTGDFQDLQVLVGVVKDEGSYFLVYGVPGFSKDNESLISRAQFLAGVRIGVPQASDLAAEAVVLHYTDWLHPEDPTHLRDAMSAVVGDHNVVCPVAQLAGRLAAQGARVYAYIFEHRASTLTWPLWMGVPHGYEIEFIFGLPLDPSLNYTTEERIFAQRLMKYWTNFARTGDPNDPRDSKSPQWPPYTTAAQQYVSLNLKPLEVRRGLRAQTCAFWNRFLPKLLSATDTLDEAERQWKAEFHRWSSYMVHWKNQFDHYSKQERCSDL
B2: unnamed (protein)
chain: MRPPWYPLHTPSLAFPLLFLLLSLLGGGARAEGREDPQLLVRVRGGQLRGIRLKAPGGPVSAFLGIPFAEPPVGSRRFMPPEPKRPWSGVLDATTFQNVCYQNVNTLYPGFEGTEMWNPNRELSEDCLYLNVWTPYPRPASPTPVLIWIYGGGFQSGAASLDVYDGRFLAQVEGAVLVSMNYRVGTFGFLALPGSREAPGNVGLLDQRLALQWVQENIAAFGGDPMSVTLFGESAGAASVGMHILSLPSRSLFHRAVLQSGTPNGPWATVSAGEARRRATLLARLVGCPPGGAGGNDTELIACLRTRPAQDLVDHERHVLPQESIFRFSFVPVVDGDFLSDTPEALINTGDFQDLQVLVGVVKDEGSYFLVYGVPGFSKDNESLISRAQFLAGVRIGVPQASDLAAEAVVLHYTDWLHPEDPTHLRDAMSAVVGDHNVVCPVAQLAGRLAAQGARVYAYIFEHRASTLTWPLWMGVPHGYEIEFIFGLPLDPSLNYTTEERIFAQRLMKYWTNFARTGDPNDPRDSKSPQWPPYTTAAQQYVSLNLKPLEVRRGLRAQTCAFWNRFLPKLLSATDTLDEAERQWKAEFHRWSSYMVHWKNQFDHYSKQERCSDL
B3: unnamed (protein)
chain: MRPPWYPLHTPSLAFPLLFLLLSLLGGGARAEGREDPQLLVRVRGGQLRGIRLKAPGGPVSAFLGIPFAEPPVGSRRFMPPEPKRPWSGVLDATTFQNVCYQYVDTLYPGFEGTEMWNPNRELSEDCLYLNVWTPYPRPASPTPVLIWIYGGGFYSGAASLDVYDGRFLAQVEGAVLVSMNYRVGTFGFLALPGSREAPGNVGLLDQRLALQWVQENIAAFGGDPMSVTLFGESAGAASVGMHILSLPSRSLFHRAVLQSGTPNGPWATVSAGEARRRATLLARLVGCPPGGAGGNDTELIACLRTRPAQDLVDHEWHVLPQESIFSFSFVPVVDGDFLSDTPEALINTGDFQDLQVLVGVVKDEGSYFLVYGVPGFSKDNESLISRAQFLAGVRIGVPQASDLAAEAVVLHYTDWLHPEDPTHLRDAMSAVVGDHNVVCPVAQLAGRLAAQGARVYAYIFEHRASTLTWPLWMGVPHGYEIEFIFGLPLDPSLNYTTEERIFAQRLMKYWTNFARTGDPNDPRDSKSPQWPPYTTAAQQYVSLNLKPLEVRRGLRAQTCAFWNRFLPKLLSATDTLDEAERQWKAEFHRWSSYMVHWKNQFDHYSKQERCSDL
B4: unnamed (protein)
chain: MRPPWYPLHTPSLAFPLLFLLLSLLGGGARAEGREDPQLLVRVRGGQLRGIRLKAPGGPVSAFLGIPFAEPPVGSRRFMPPEPKRPWSGVLDATTFQNVCYQYVNTLYPGFEGTEMWNPNRELSEDCLYLNVWTPYPRPASPTPVLIWIYGGGFYSGAASLDVYDGRFLAQVEGAVLVSMNYRVGTFGFLALPGSREAPGNVGLLDQRLALQWVQENIAAFGGDPMSVTLFGESAGAASVGMHILSLPSRSLFHRAVLQSGTPNGPWATVSAGEARRRATLLARLVGCPPGGAGGNDTELIACLRTRPAQDLVDHEWHVLPQESIFRFSFVPVVDGDFLSDTPEALINTGDFQDLQVLVGVVKDEGSYFLVYGVPGFSKDNESLISRAQFLAGVRIGVPQASDLAAEAVVLHYTDWLHPEDPTHLRDAMSAVVGDHNVVCPVAQLAGRLAAQGARVYAYIFEHRASTLTWPLWMGVPHGYEIEFIFGLPLDPSLNYTTEERIFAQRLMKYWTNFARTGDPNDPRDSKSPQWPPYTTAAQQYVSLNLKPLEVRRGLRAQTCAFWNRFLPKLLSATDTLDEAERQWKAEFHRWSSYMVHWKNQFDHYSKQERCSDL
B5: unnamed (protein)
chain: MRPPWYPLHTPSLAFPLLFLLLSLLGGGARAEGREDPQLLVRVRGGQLRGIRLKAPGGPVSAFLGIPFAEPPVGSRRFMPPEPKRPWSGVLDATTFQNVCYQNVDTLYPGFEGTEMWNPNRELSEDCLYLNVWTPYPRPASPTPVLIWIYGGGFQSGAASLDVYDGRFLAQVEGAVLVSMNYRVGTFGFLALPGSREAPGNVGLLDQRLALQWVQENIAAFGGDPMSVTLFGESAGAASVGMHILSLPSRSLFHRAVLQSGTPNGPWATVSAGEARRRATLLARLVGCPPGGAGGNDTELIACLRTRPAQDLVDHERHVLPQESIFRFSFVPVVDGDFLSDTPEALINTGDFQDLQVLVGVVKDEGSYFLVYGVPGFSKDNESLISRAQFLAGVRIGVPQASDLAAEAVVLHYTDWLHPEDPTHLRDAMSAVVGDHNVVCPVAQLAGRLAAQGARVYAYIFEHRASTLTWPLWMGVPHGYEIEFIFGLPLDPSLNYTTEERIFAQRLMKYWTNFARTGDPNDPRDSKSPQWPPYTTAAQQYVSLNLKPLEVRRGLRAQTCAFWNRFLPKLLSATDTLDEAERQWKAEFHRWSSYMVHWKNQFDHYSKQERCSDL
B6: unnamed (protein)
chain: MRPPWYPLHTPSLAFPLLFLLLSLLGGGARAEGREDPQLLVRVRGGQLRGIRLKAPGGPVSAFLGIPFAEPPVGSRRFMPPEPKRPWSGVLDATTFQNVCYQQVDTLYPGFEGTEMWNPNRELSEDCLYLNVWTPYPRPASPTPVLIWIYGGGFYSGAASLDVYDGRFLAQVEGAVLVSMNYRVGTFGFLALPGSREAPGNVGLLDQRLALQWVQENIAAFGGDPMSVTLFGESAGAASVGMHILSLPSRSLFHRAVLQSGTPNGPWATVSAGEARRRATLLARLVGCPPGGAGGNDTELIACLRTRPAQDLVDHERHVLPQESIFRFSFVPVVDGDFLSDTPEALINTGDFQDLQVLVGVVKDEGSYFLVYGVPGFSKDNESLISRAQFLAGVRIGVPQASDLAAEAVVLHYTDWLHPEDPTHLRDAMSAVVGDHNVVCPVAQLAGRLAAQGARVYAYIFEHRASTLTWPLWMGVPHGYEIEFIFGLPLDPSLNYTTEERIFAQRLMKYWTNFARTGDPNDPRDSKSPQWPPYTTAAQQYVSLNLKPLEVRRGLRAQTCAFWNRFLPKLLSATDTLDEAERQWKAEFHRWSSYMVHWKNQFDHYSKQERCSDL
B7: unnamed (protein)
chain: MRPPWYPLHTPSLAFPLLFLLLSLLGGGARAEGREDPQLLVRVRGGQLRGIRLKAPGGPVSAFLGIPFAEPPVGSRRFMPPEPKRPWSGVLDATTFQNVCYQYVDTLYPGFEGTEMWNPNRELSEDCLYLNVWTPYPRPASPTPVLIWIYGGGFYSGAASLDVYDGRFLAQVEGAVLVSMNYRVGTFGFLALPGSREAPGNVGLLDQRLALQWVQENIAAFGGDPMSVTLFGESAGAASVGMHILSLPSRSLFHRAVLQSGTPNGPWATVSAGEARRRATLLARLVGCPPGGAGGNDTELIACLRTRPAQDLVDHEWHVLPQESIFRFSFVPVVDGDFLSDTPEALINTGDFQDLQVLVGVVKDEGSYGLVYGVPGFSKDNESLISRAQFLAGVRIGVPQASDLAAEAVVLHYTDWLHPEDPTHLRDAMSAVVGDHNVVCPVAQLAGRLAAQGARVYAYIFEHRASTLTWPLWMGVPHGYEIEFIFGLPLDPSLNYTTEERIFAQRLMKYWTNFARTGDPNDPRDSKSPQWPPYTTAAQQYVSLNLKPLEVRRGLRAQTCAFWNRFLPKLLSATDTLDEAERQWKAEFHRWSSYMVHWKNQFDHYSKQERCSDL
B8: unnamed (protein)
chain: MRPPWYPLHTPSLAFPLLFLLLSLLGGGARAEGREDPQLLVRVRGGQLRGIRLKAPGGPVSAFLGIPFAEPPVGSRRFMPPEPKRPWSGVLDATTFQNVCYQYVDTLYPGFEGTEMWNPNRELSEDCLYLNVWTPYPRPASPTPVLIWIYGGGFYSGAASLDVYDGRFLAQVEGAVLVSMNYRVGTFGFLALPGSREAPGNVGLLDQRLALQWVQENIAAFGGDPMSVTLFGESAGAASVGMHILSLPSRSLFHRAVLQSGTPNGPWATVSAGEARRRATLLARLVGCPPGGAGGNDTELIACLRTRPAQDLVDHEWHVLPQESIFRISFVPVVDGDFLSDTPEALINTGDFQDLQVLVGVVKDEGSYFLVYGVPGFSKDNESLISRAQFLAGVRIGVPQASDLAAEAVVLHYTDWLHPEDPTHLRDAMSAVVGDHNVVCPVAQLAGRLAAQGARVYAYIFEHRASTLTWPLWMGVPHGYEIEFIFGLPLDPSLNYTTEERIFAQRLMKYWTNFARTGDPNDPRDSKSPQWPPYTTAAQQYVSLNLKPLEVRRGLRAQTCAFWNRFLPKLLSATDTLDEAERQWKAEFHRWSSYMVHWKNQFDHYSKQERCSDL
B9: unnamed (protein)
chain: MRPPWYPLHTPSLAFPLLFLLLSLLGGGARAEGREDPQLLVRVRGGQLRGIRLKAPGGPVSAFLGIPFAEPPVGSRRFMPPEPKRPWSGVLDATTFQNVCYQYVDTLYPGFEGTEMWNPNRELSEDCLYLNVWTPYPRPASPTPVLIWIYGGGFYSGAASLDVYDGRFLAQVEGAVLVSMNYRVGTFGFLALPGSREAPGNVGLLDQRLALQWVQENIAAFGGDPMSVTLFGESAGAASVGMHILSLPSRSLFHRAVLQSGTPNGPWATVSAGEARRRATLLARLVGCPPGGAGGNDTELIACLRTRPAQDLVDHEWHVLPQESILRFSFVPVVDGDFLSDTPEALINTGDFQDLQVLVGVVKDEGSYFLVYGVPGFSKDNESLISRAQFLAGVRIGVPQASDLAAEAVVLHYTDWLHPEDPTHLRDAMSAVVGDHNVVCPVAQLAGRLAAQGARVYAYIFEHRASTLTWPLWMGVPHGYEIEFIFGLPLDPSLNYTTEERIFAQRLMKYWTNFARTGDPNDPRDSKSPQWPPYTTAAQQYVSLNLKPLEVRRGLRAQTCAFWNRFLPKLLSATDTLDEAERQWKAEFHRWSSYMVHWKNQFDHYSKQERCSDL

Substrate in the series: Acetylcholine
The settings on record: pH 7; 22 °C.
Turning to B1, the Michaelis constant (Km) was 2100 µM and the catalytic constant (kcat) was determined as 2500 s⁻¹.

Consider B2, for which the Michaelis constant (Km) was determined as 6100 µM and the catalytic constant (kcat) was found to be 2330 s⁻¹.

Turning to B3, the Km turned out to be 50 µM and the kcat amounted to 1530 s⁻¹.

As to B4, the Km stood at 1300 µM and the kcat turned out to be 1400 s⁻¹.

For the protein B5, the Km came to 850 µM and the turnover number (kcat) was 3500 s⁻¹.

As for B6, the Km came to 700 µM and the turnover number (kcat) came out at 2670 s⁻¹.

For B7, the Km was 75 µM and the kcat came to 383 s⁻¹.

Turning to B8, the Michaelis constant (Km) came to 357000 µM, the turnover number (kcat) was 250 s⁻¹ and the kcat/Km is 700 s⁻¹ M⁻¹.

B9: the Michaelis-Menten constant (Km) was 49 µM and the kcat stood at 733 s⁻¹.

(Values after the PETadex activity labels (doi:10.1021/bi00096a018).)
